Here are results for one molecule from doi:10.1101/2023.02.27.530186 (bioRxiv, 2023).

The target of data set [1] is T3 SAMase, wild type, C-terminally His6-tagged (bacteriophage T3) (UniProt P07693). Put plainly: cryo-EM structure.
The data set “cryo-EM structure” deals with the molecule itself. Briefly: cryo-EM structure.
Data set [2] addresses T3 SAMase E68Q/Q94A, C-terminally His6-tagged (bacteriophage T3) (UniProt P07693). Briefly: SEC-SAXS. (In general: Size exclusion chromatography separates by hydrodynamic size, large species first.)
For data set [3], the target named is T3 SAMase, wild type, C-terminally His6-tagged (bacteriophage T3) (UniProt P07693). Briefly: SEC-SAXS.
Data set [4] addresses T3 SAMase E68Q/Q94A, C-terminally His6-tagged (bacteriophage T3) (UniProt P07693). Briefly: mass photometry.

B1: MetK, SAM synthase (methionine adenosyltransferase) of E. coli, endogenous (enzyme, UniProt P0A817 1-384, looked up)
chain: MAKHLFTSESVSEGHPDKIADQISDAVLDAILEQDPKARVACETYVKTGMVLVGGEITTSAWVDIEEITRNTVREIGYVHSDMGFDANSCAVLSAIGKQSPDINQGVDRADPLEQGAGDQGLMFGYATNETDVLMPAPITYAHRLVQRQAEVRKNGTLPWLRPDAKSQVTFQYDDGKIVGIDAVVLSTQHSEEIDQKSLQEAVMEEIIKPILPAEWLTSATKFFINPTGRFVIGGPMGDCGLTGRKIIVDTYGGMARHGGGAFSGKDPSKVDRSAAYAARYVAKNIVAAGLADRCEIQVSYAIGVAEPTSIMVETFGTEKVPSEQLTLLVREFFDLRPYGLIQMLDLLHPIYKETAAYGHFGREHFPWEKTDKAQLLRDAAGLK
Turning to B1, the stoichiometry N (SAMase per MetK subunit (4:4)) in data set [1], in data set [2], in data set [3] and in data set [4] was 1 in each case. Besides, the “stoichiometry N” value in the data set “cryo-EM structure” came to 4.

As usually defined, the stoichiometry N is a count of units in the complex or per binding partner.
